The text below walks through data of patent publication US20180155451A1 (published 2018).

T1: FcγRIIa R (human FcγRIIa, allotype R, Arg at position 131), extracellular domain with C-terminal His tag (human, UniProt P12318 34-217)
T1 construct: extracellular domain; expressed in FreeStyle293 cells; analyte in Biacore; also called 2aR; FcgRIIa R
T1 sequence (looked up): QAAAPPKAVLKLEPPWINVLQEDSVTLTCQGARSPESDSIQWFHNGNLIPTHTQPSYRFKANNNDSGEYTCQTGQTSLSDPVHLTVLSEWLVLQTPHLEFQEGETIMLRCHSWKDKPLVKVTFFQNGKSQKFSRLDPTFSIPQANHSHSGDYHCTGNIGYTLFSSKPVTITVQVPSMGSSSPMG

B1: GpH7-B3 variant S337_02A/GpL16-k0 (antibody, human IgG1, kappa)
heavy: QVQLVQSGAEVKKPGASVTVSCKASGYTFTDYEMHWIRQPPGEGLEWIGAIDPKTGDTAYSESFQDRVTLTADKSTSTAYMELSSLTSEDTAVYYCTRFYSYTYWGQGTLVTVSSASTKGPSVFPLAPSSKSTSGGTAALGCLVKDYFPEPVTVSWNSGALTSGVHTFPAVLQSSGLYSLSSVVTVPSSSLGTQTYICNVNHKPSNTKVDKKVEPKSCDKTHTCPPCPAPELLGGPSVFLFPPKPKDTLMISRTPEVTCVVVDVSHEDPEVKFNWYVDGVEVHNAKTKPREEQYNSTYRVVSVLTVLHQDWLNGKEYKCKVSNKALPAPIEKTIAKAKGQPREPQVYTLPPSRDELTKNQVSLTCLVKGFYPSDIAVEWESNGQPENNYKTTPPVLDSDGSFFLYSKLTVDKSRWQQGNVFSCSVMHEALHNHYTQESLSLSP
light: DIVMTQSPLSLPVTPGEPASISCQASESLVHSNRNTYLHWYLQKPGQSPQLLIYKVSNRFSGVPDRFSGSGSGTDFTLKISRVEAEDVGVYYCSQNTHVPPTFGQGTKVEIERTVAAPSVFIFPPSDEQLKSGTASVVCLLNNFYPREAKVQWKVDNALQSGNSQESVTEQDSKDSTYSLSSTLTLSKADYEKHKVYACEVTHQGLSSPVTKSFNRGEC
notes: homodimerized antibody, mutation in both H chains; also called Ho Ab
B2: GpH7-B3 variant P271_10E/GpL16-k0 (antibody, human IgG1, kappa)
heavy: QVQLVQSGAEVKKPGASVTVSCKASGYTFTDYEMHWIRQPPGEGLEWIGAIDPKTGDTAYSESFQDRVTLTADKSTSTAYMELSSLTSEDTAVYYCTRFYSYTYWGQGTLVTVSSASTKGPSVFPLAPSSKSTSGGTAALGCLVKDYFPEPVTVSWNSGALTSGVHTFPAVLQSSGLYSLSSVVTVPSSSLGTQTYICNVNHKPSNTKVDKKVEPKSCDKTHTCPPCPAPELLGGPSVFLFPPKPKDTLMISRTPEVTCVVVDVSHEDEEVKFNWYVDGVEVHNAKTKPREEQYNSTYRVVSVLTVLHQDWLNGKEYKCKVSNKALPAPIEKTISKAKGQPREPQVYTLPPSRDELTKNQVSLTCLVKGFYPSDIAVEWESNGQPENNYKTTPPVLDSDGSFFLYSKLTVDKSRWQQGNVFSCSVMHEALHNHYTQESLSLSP
light: DIVMTQSPLSLPVTPGEPASISCQASESLVHSNRNTYLHWYLQKPGQSPQLLIYKVSNRFSGVPDRFSGSGSGTDFTLKISRVEAEDVGVYYCSQNTHVPPTFGQGTKVEIERTVAAPSVFIFPPSDEQLKSGTASVVCLLNNFYPREAKVQWKVDNALQSGNSQESVTEQDSKDSTYSLSSTLTLSKADYEKHKVYACEVTHQGLSSPVTKSFNRGEC
notes: as for B1
B3: GpH7-B3 variant P238_15Y/GpL16-k0 (antibody, human IgG1, kappa)
heavy: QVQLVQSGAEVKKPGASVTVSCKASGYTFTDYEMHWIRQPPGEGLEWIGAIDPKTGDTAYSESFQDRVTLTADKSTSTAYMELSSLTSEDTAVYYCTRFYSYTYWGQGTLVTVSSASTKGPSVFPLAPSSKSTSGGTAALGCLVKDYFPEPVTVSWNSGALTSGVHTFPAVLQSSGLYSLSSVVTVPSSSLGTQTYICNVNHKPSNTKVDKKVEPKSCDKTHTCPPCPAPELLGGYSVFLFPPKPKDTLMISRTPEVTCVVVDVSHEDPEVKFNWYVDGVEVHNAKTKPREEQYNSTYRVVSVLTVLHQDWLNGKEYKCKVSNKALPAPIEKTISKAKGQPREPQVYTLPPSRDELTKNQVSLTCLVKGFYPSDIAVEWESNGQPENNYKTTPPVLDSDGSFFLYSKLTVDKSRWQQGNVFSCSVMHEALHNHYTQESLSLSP
light: DIVMTQSPLSLPVTPGEPASISCQASESLVHSNRNTYLHWYLQKPGQSPQLLIYKVSNRFSGVPDRFSGSGSGTDFTLKISRVEAEDVGVYYCSQNTHVPPTFGQGTKVEIERTVAAPSVFIFPPSDEQLKSGTASVVCLLNNFYPREAKVQWKVDNALQSGNSQESVTEQDSKDSTYSLSSTLTLSKADYEKHKVYACEVTHQGLSSPVTKSFNRGEC
notes: as for B1
B4: GpH7-B3 variant P238_16H/GpL16-k0 (antibody, human IgG1, kappa)
heavy: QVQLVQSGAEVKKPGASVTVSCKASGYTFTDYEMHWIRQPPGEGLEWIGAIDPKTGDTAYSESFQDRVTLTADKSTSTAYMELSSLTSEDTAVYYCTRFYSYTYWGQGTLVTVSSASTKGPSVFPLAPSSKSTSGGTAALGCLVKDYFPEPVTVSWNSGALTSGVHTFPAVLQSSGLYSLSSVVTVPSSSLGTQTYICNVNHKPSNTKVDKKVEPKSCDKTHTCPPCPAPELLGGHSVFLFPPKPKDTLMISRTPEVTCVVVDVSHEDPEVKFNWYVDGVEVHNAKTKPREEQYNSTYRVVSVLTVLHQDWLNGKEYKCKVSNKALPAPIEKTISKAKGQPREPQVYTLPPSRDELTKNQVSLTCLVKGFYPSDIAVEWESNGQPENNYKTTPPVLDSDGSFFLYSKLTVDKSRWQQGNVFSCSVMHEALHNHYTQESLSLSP
light: DIVMTQSPLSLPVTPGEPASISCQASESLVHSNRNTYLHWYLQKPGQSPQLLIYKVSNRFSGVPDRFSGSGSGTDFTLKISRVEAEDVGVYYCSQNTHVPPTFGQGTKVEIERTVAAPSVFIFPPSDEQLKSGTASVVCLLNNFYPREAKVQWKVDNALQSGNSQESVTEQDSKDSTYSLSSTLTLSKADYEKHKVYACEVTHQGLSSPVTKSFNRGEC
notes: as for B1
B5: GpH7-B3 variant P331_03V/GpL16-k0 (antibody, human IgG1, kappa)
heavy: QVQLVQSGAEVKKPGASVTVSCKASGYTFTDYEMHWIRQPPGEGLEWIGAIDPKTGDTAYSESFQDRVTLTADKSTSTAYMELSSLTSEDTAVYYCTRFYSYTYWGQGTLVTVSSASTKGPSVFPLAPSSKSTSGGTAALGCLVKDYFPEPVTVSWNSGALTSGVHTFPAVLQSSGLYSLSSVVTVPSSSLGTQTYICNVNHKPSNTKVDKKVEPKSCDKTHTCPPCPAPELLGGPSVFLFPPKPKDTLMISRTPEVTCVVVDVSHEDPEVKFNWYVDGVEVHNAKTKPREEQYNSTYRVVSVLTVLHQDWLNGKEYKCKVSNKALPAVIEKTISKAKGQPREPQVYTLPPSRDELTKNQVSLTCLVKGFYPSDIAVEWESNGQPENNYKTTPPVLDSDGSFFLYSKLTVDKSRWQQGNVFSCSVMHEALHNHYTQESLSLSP
light: DIVMTQSPLSLPVTPGEPASISCQASESLVHSNRNTYLHWYLQKPGQSPQLLIYKVSNRFSGVPDRFSGSGSGTDFTLKISRVEAEDVGVYYCSQNTHVPPTFGQGTKVEIERTVAAPSVFIFPPSDEQLKSGTASVVCLLNNFYPREAKVQWKVDNALQSGNSQESVTEQDSKDSTYSLSSTLTLSKADYEKHKVYACEVTHQGLSSPVTKSFNRGEC
notes: as for B1
B6: GpH7-B3 variant P238_10E/GpL16-k0 (antibody, human IgG1, kappa)
heavy: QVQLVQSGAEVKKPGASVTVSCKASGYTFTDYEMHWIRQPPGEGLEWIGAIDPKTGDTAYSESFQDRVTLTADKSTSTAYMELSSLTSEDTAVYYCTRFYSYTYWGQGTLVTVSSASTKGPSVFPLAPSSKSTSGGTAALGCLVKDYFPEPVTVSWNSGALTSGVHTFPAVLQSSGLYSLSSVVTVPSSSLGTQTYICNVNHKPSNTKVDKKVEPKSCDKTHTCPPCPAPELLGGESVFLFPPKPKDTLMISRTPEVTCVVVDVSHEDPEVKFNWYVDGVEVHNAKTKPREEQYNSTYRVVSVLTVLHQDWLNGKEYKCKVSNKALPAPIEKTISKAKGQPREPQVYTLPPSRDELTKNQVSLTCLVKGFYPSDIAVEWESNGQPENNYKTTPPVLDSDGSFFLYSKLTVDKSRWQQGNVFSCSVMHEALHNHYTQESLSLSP
light: DIVMTQSPLSLPVTPGEPASISCQASESLVHSNRNTYLHWYLQKPGQSPQLLIYKVSNRFSGVPDRFSGSGSGTDFTLKISRVEAEDVGVYYCSQNTHVPPTFGQGTKVEIERTVAAPSVFIFPPSDEQLKSGTASVVCLLNNFYPREAKVQWKVDNALQSGNSQESVTEQDSKDSTYSLSSTLTLSKADYEKHKVYACEVTHQGLSSPVTKSFNRGEC
notes: as for B1
B7: GpH7-B3 variant P271_09D/GpL16-k0 (antibody, human IgG1, kappa)
heavy: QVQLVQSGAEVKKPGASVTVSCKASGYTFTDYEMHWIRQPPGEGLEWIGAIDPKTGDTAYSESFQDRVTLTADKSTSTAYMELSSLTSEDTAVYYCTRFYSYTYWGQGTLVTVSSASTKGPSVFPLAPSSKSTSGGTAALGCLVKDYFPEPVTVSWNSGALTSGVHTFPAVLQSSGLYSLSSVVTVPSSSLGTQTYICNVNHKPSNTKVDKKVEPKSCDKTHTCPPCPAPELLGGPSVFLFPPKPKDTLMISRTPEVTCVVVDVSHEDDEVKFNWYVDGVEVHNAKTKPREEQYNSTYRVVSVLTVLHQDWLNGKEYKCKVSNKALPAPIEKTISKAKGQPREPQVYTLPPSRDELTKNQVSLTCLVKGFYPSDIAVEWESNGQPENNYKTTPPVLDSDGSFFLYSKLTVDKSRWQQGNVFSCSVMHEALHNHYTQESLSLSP
light: DIVMTQSPLSLPVTPGEPASISCQASESLVHSNRNTYLHWYLQKPGQSPQLLIYKVSNRFSGVPDRFSGSGSGTDFTLKISRVEAEDVGVYYCSQNTHVPPTFGQGTKVEIERTVAAPSVFIFPPSDEQLKSGTASVVCLLNNFYPREAKVQWKVDNALQSGNSQESVTEQDSKDSTYSLSSTLTLSKADYEKHKVYACEVTHQGLSSPVTKSFNRGEC
notes: as for B1
B8: GpH7-B3 variant P238_20W/GpL16-k0 (antibody, human IgG1, kappa)
heavy: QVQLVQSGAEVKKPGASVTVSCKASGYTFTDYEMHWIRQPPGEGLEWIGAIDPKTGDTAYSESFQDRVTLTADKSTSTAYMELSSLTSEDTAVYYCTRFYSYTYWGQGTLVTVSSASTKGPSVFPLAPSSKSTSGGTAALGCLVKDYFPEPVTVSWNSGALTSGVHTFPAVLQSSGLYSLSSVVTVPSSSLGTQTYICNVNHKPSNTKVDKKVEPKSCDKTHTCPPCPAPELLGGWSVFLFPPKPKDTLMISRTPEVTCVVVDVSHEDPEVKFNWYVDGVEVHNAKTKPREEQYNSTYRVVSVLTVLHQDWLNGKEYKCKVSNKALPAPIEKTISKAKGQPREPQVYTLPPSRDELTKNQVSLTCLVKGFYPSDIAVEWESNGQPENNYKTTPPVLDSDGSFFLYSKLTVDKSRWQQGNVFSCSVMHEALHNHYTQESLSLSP
light: DIVMTQSPLSLPVTPGEPASISCQASESLVHSNRNTYLHWYLQKPGQSPQLLIYKVSNRFSGVPDRFSGSGSGTDFTLKISRVEAEDVGVYYCSQNTHVPPTFGQGTKVEIERTVAAPSVFIFPPSDEQLKSGTASVVCLLNNFYPREAKVQWKVDNALQSGNSQESVTEQDSKDSTYSLSSTLTLSKADYEKHKVYACEVTHQGLSSPVTKSFNRGEC
notes: as for B1
B9: GpH7-B3 variant P238_19Q/GpL16-k0 (antibody, human IgG1, kappa)
heavy: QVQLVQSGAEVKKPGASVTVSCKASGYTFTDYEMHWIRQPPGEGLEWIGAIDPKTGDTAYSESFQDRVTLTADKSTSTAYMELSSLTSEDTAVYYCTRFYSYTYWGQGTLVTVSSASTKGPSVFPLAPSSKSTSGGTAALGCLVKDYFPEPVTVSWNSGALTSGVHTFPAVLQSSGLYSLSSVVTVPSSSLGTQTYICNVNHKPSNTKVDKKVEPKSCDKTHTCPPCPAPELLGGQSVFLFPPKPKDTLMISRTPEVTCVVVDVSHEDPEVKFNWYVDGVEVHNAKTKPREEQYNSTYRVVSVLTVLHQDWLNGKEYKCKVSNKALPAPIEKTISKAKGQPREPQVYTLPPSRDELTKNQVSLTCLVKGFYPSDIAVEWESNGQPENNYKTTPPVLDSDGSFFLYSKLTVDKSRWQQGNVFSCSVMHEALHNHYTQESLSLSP
light: DIVMTQSPLSLPVTPGEPASISCQASESLVHSNRNTYLHWYLQKPGQSPQLLIYKVSNRFSGVPDRFSGSGSGTDFTLKISRVEAEDVGVYYCSQNTHVPPTFGQGTKVEIERTVAAPSVFIFPPSDEQLKSGTASVVCLLNNFYPREAKVQWKVDNALQSGNSQESVTEQDSKDSTYSLSSTLTLSKADYEKHKVYACEVTHQGLSSPVTKSFNRGEC
notes: as for B1
B10: GpH7-A5/GpH7-B3 variant S239_10E/GpL16-k0 (antibody, human IgG1, kappa)
heavy 1: not shown
heavy 2: not shown
light: DIVMTQSPLSLPVTPGEPASISCQASESLVHSNRNTYLHWYLQKPGQSPQLLIYKVSNRFSGVPDRFSGSGSGTDFTLKISRVEAEDVGVYYCSQNTHVPPTFGQGTKVEIERTVAAPSVFIFPPSDEQLKSGTASVVCLLNNFYPREAKVQWKVDNALQSGNSQESVTEQDSKDSTYSLSSTLTLSKADYEKHKVYACEVTHQGLSSPVTKSFNRGEC
notes: heterodimerized, mutation in one H chain only; also called He Ab
B11: GpH7-A5/GpH7-B3 variant S267_10E/GpL16-k0 (antibody, human IgG1, kappa)
heavy 1: not shown
heavy 2: not shown
light: DIVMTQSPLSLPVTPGEPASISCQASESLVHSNRNTYLHWYLQKPGQSPQLLIYKVSNRFSGVPDRFSGSGSGTDFTLKISRVEAEDVGVYYCSQNTHVPPTFGQGTKVEIERTVAAPSVFIFPPSDEQLKSGTASVVCLLNNFYPREAKVQWKVDNALQSGNSQESVTEQDSKDSTYSLSSTLTLSKADYEKHKVYACEVTHQGLSSPVTKSFNRGEC
notes: as for B10
B12: GpH7-A5/GpH7-B3 variant K334_13S/GpL16-k0 (antibody, human IgG1, kappa)
heavy 1: not shown
heavy 2: not shown
light: DIVMTQSPLSLPVTPGEPASISCQASESLVHSNRNTYLHWYLQKPGQSPQLLIYKVSNRFSGVPDRFSGSGSGTDFTLKISRVEAEDVGVYYCSQNTHVPPTFGQGTKVEIERTVAAPSVFIFPPSDEQLKSGTASVVCLLNNFYPREAKVQWKVDNALQSGNSQESVTEQDSKDSTYSLSSTLTLSKADYEKHKVYACEVTHQGLSSPVTKSFNRGEC
notes: as for B10
B13: GpH7-A5/GpH7-B3 variant K334_19Q/GpL16-k0 (antibody, human IgG1, kappa)
heavy 1: not shown
heavy 2: not shown
light: DIVMTQSPLSLPVTPGEPASISCQASESLVHSNRNTYLHWYLQKPGQSPQLLIYKVSNRFSGVPDRFSGSGSGTDFTLKISRVEAEDVGVYYCSQNTHVPPTFGQGTKVEIERTVAAPSVFIFPPSDEQLKSGTASVVCLLNNFYPREAKVQWKVDNALQSGNSQESVTEQDSKDSTYSLSSTLTLSKADYEKHKVYACEVTHQGLSSPVTKSFNRGEC
notes: as for B10
B14: GpH7-A5/GpH7-B3 variant S239_08L/GpL16-k0 (antibody, human IgG1, kappa)
heavy 1: not shown
heavy 2: not shown
light: DIVMTQSPLSLPVTPGEPASISCQASESLVHSNRNTYLHWYLQKPGQSPQLLIYKVSNRFSGVPDRFSGSGSGTDFTLKISRVEAEDVGVYYCSQNTHVPPTFGQGTKVEIERTVAAPSVFIFPPSDEQLKSGTASVVCLLNNFYPREAKVQWKVDNALQSGNSQESVTEQDSKDSTYSLSSTLTLSKADYEKHKVYACEVTHQGLSSPVTKSFNRGEC
notes: as for B10
B15: GpH7-A5/GpH7-B3 variant L234_20W/GpL16-k0 (antibody, human IgG1, kappa)
heavy 1: not shown
heavy 2: not shown
light: DIVMTQSPLSLPVTPGEPASISCQASESLVHSNRNTYLHWYLQKPGQSPQLLIYKVSNRFSGVPDRFSGSGSGTDFTLKISRVEAEDVGVYYCSQNTHVPPTFGQGTKVEIERTVAAPSVFIFPPSDEQLKSGTASVVCLLNNFYPREAKVQWKVDNALQSGNSQESVTEQDSKDSTYSLSSTLTLSKADYEKHKVYACEVTHQGLSSPVTKSFNRGEC
notes: as for B10
B16: GpH7-A5/GpH7-B3 variant L234_15Y/GpL16-k0 (antibody, human IgG1, kappa)
heavy 1: not shown
heavy 2: not shown
light: DIVMTQSPLSLPVTPGEPASISCQASESLVHSNRNTYLHWYLQKPGQSPQLLIYKVSNRFSGVPDRFSGSGSGTDFTLKISRVEAEDVGVYYCSQNTHVPPTFGQGTKVEIERTVAAPSVFIFPPSDEQLKSGTASVVCLLNNFYPREAKVQWKVDNALQSGNSQESVTEQDSKDSTYSLSSTLTLSKADYEKHKVYACEVTHQGLSSPVTKSFNRGEC
notes: as for B10
B17: GpH7-A5/GpH7-B3 variant S337_07I/GpL16-k0 (antibody, human IgG1, kappa)
heavy 1: not shown
heavy 2: not shown
light: DIVMTQSPLSLPVTPGEPASISCQASESLVHSNRNTYLHWYLQKPGQSPQLLIYKVSNRFSGVPDRFSGSGSGTDFTLKISRVEAEDVGVYYCSQNTHVPPTFGQGTKVEIERTVAAPSVFIFPPSDEQLKSGTASVVCLLNNFYPREAKVQWKVDNALQSGNSQESVTEQDSKDSTYSLSSTLTLSKADYEKHKVYACEVTHQGLSSPVTKSFNRGEC
notes: as for B10
B18: GpH7-A5/GpH7-B3 variant S267_09D/GpL16-k0 (antibody, human IgG1, kappa)
heavy 1: not shown
heavy 2: not shown
light: DIVMTQSPLSLPVTPGEPASISCQASESLVHSNRNTYLHWYLQKPGQSPQLLIYKVSNRFSGVPDRFSGSGSGTDFTLKISRVEAEDVGVYYCSQNTHVPPTFGQGTKVEIERTVAAPSVFIFPPSDEQLKSGTASVVCLLNNFYPREAKVQWKVDNALQSGNSQESVTEQDSKDSTYSLSSTLTLSKADYEKHKVYACEVTHQGLSSPVTKSFNRGEC
notes: as for B10
B19: GpH7-A5/GpH7-B3 variant L234_04F/GpL16-k0 (antibody, human IgG1, kappa)
heavy 1: not shown
heavy 2: not shown
light: DIVMTQSPLSLPVTPGEPASISCQASESLVHSNRNTYLHWYLQKPGQSPQLLIYKVSNRFSGVPDRFSGSGSGTDFTLKISRVEAEDVGVYYCSQNTHVPPTFGQGTKVEIERTVAAPSVFIFPPSDEQLKSGTASVVCLLNNFYPREAKVQWKVDNALQSGNSQESVTEQDSKDSTYSLSSTLTLSKADYEKHKVYACEVTHQGLSSPVTKSFNRGEC
notes: as for B10

In one assay the target is T1, FcγRIIa R (human FcγRIIa, allotype R, …). The assay can be described thus: SPR (Biacore), relative binding vs GpH7-B3/GpL16-k0. Here is the method: Analysis of interaction between objective antibody and the FcγR was carried out using Biacore T100 (GE Healthcare). HBS-EP+ (GE Healthcare) was used as the running buffer, and the measurement temperature was set to 25° C. Chips produced by immobilizing the antigen peptide by the amine coupling method to a Series S Sencor Chip CM5 (GE Healthcare), or alternatively, chips produced by allowing preliminarily biotinylated antigen peptides to interact with and immobilize onto a Series S Sensor Chip SA (certified) (GE Healthcare) were used. Antibodies of interest were captured onto an antigen peptide-immobilized chip, and allowed to interact to each FcγR diluted with running buffer. To regenerate and repeatedly use the chip, the antibodies captured on the chip were washed off by reacting 10 mM glycine-HCl, pH 1.5.
The FcγR-binding activity of each antibody was assessed primarily using as an indicator the FcγR-binding activity and dissociation constant for FcγR.
Background: In SPR one partner is held on a chip, and binding of the other changes the refractive index at the surface.
With B1, the Ho/Con_2aR was 102 relative, control = 100.
On to B2, for which the Ho/Con_2aR was 88.8 relative, control = 100.
Same read-out and setting: in the case of B3 it was 95.9 relative, control = 100.
The same measure, in the same setting: in the case of B4 it was 25.5 relative, control = 100; in that of B5, 89.1 relative, control = 100.
B6: the Ho/Con_2aR was 21.4 relative, control = 100.
The same measure, in the same setting: as for B7, the figure is 92.4 relative, control = 100; as for B8, 25.7 relative, control = 100.
As to B9, the Ho/Con_2aR was 19.4 relative, control = 100.

The next assay addresses FcγRIIa H (human FcγRIIa, allotype with His at position 131), extracellular domain with C-terminal His tag (human, UniProt P12318 34-217). Description: SPR (Biacore), antibody captured on antigen peptide chip, FcγR as analyte; relative to HeCon Ab GpH7-A5/GpH7-B3/GpL16-k0 = 100.
The molecule B10 gave a He/Con_2aH of 112 control = 100.
Still for that read-out and setting: in the case of B11 it was 102 control = 100; in that of B12, 102 control = 100; in that of B13, 101 control = 100.
On the same count and under the same terms, in the case of B14 it was 105 control = 100; in that of B15, 114 control = 100; in that of B16, 120 control = 100.
Same read-out and setting: as for B17, the figure is 101 control = 100; as for B18, 105 control = 100.
In turn, B19 yielded a He/Con_2aH of 120 control = 100.
